Assay results as given in patent US20200199241A1 (Chugai, published 2020).

T1: FcγRIIb (human, UniProt P31994 43-217, limits assumed)
T1 construct: also called FcγIIB; CD32
T1 sequence: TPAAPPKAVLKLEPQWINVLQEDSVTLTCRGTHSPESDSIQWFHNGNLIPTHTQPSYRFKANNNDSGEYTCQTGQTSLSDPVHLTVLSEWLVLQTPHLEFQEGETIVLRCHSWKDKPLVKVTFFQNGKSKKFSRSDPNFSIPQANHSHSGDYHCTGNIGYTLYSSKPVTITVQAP

T2: FcγRIIa type R (human, UniProt P12318 36-217)
T2 construct: also called FcγRIIaR; FcγRIIa(R)
T2 chain: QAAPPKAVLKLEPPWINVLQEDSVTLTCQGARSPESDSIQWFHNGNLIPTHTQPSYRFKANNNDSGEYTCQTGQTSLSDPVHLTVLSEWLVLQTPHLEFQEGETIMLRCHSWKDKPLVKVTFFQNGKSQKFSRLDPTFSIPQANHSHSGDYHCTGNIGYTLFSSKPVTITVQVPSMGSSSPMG

T3: FcγRIIa type H (human, UniProt P12318 36-217)
T3 construct: also called FcγRIIaH; FcγRIIa(H)
T3 sequence: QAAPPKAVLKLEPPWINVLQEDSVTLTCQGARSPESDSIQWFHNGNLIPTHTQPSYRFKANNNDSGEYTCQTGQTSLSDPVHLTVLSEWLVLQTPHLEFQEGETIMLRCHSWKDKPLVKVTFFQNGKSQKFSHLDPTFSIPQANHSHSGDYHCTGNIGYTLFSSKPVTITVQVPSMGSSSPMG


Experiments:
FcγRIIb [1] = biological target: T1, FcγRIIb; test: SPR (Biacore); KD for FcγRIIaR divided by KD for FcγRIIb of the same antibody; column head in Table 52-1
Text: (§1) Furthermore, KD(IIaR)/KD(IIb) and KD(IIaH)/KD(IIb) in the table respectively represent the value obtained by dividing the KD value of each variant for FcγRIIaR by the KD value of each variant for FcγRIIb, and the value obtained by dividing the KD value of each variant for FcγRIIaH by the KD value of each variant for FcγRIIb. KD(IIb) of the parent polypeptide/KD(IIb) of the altered polypeptide refers to the value obtained by dividing the KD value of the parent polypeptide for FcγRIIb by the KD value of each variant for FcγRIIb.

FcγRIIb [2] = biological target: T1, FcγRIIb; test: SPR (Biacore); KD for FcγRIIaH divided by KD for FcγRIIb of the same antibody; column head in Table 52-1
Text: as §1

FcγRIIa type R = biological target: T2, FcγRIIa type R; test: SPR (Biacore), method of Example 14
FcγRIIIa type V = biological target: T4, FcγRIIIa type V (human, UniProt P08637 17-208, limits assumed); test: SPR (Biacore), method of Example 14
T4 construct: also called FcγRIIIaV; FcγRIIIa(V)
T4 sequence (P08637 17-208 F176V limits assumed): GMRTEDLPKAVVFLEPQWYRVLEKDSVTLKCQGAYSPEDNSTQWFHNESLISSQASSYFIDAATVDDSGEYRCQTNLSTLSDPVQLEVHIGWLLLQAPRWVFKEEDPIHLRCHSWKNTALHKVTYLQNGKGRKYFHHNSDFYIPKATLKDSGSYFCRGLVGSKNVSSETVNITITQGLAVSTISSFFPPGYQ

FcγRIIb [3] = biological target: T1, FcγRIIb; test: SPR (Biacore), method of Example 14
FcγRIIa type H = biological target: T3, FcγRIIa type H; test: SPR (Biacore), method of Example 14
FcγRIa = biological target: T5, FcγRIa (human, UniProt P12314 16-292, limits assumed); test: SPR (Biacore), method of Example 14
T5 construct: also called CD64
T5 sequence (P12314 16-292 limits assumed): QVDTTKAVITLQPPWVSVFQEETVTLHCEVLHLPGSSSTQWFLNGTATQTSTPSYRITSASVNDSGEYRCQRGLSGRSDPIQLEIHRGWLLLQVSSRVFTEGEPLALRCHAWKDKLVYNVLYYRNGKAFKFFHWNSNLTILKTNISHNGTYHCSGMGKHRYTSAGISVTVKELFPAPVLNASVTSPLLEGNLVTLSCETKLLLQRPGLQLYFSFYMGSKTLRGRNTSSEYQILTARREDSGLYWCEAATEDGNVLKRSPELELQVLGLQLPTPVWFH

FcγRIIb [4] = biological target: T1, FcγRIIb; test: ratio of SPR KD values, parent IL6R-B3/IL6R-L
Text: as §1

| KD(IIaR)/KD(IIb) (FcγRIIb [1]) | KD(IIaH)/KD(IIb) (FcγRIIb [2]) | Kd (FcγRIIa type R) | Kd (FcγRIIIa type V) | Kd (FcγRIIb [3]) | Kd (FcγRIIa type H) | Kd (FcγRIa) | KD(IIb) of the parent polypeptide/KD(IIb) of altered polypeptide (FcγRIIb [4]) | Binder |
| --- | --- | --- | --- | --- | --- | --- | --- | --- |
| 18.2 | 238 | 2300 nM | 66000 nM | 130 nM | 30000 nM | 11 nM | 24.5 fold | IL6R-BP184/IL6R-L (antibody, human IgG1, Anti-IL-6R human IgG1 variant; copies: 2 + 2) heavy: QVQLQESGPGLVKPSETLSLTCAVSGHSISHDHAWSWVRQPPGEGLEWIGFISYSGITNYNPSLQGRVTISRDNSKNTLYLQMNSLRAEDTAVYYCARSLARTTAMDYWGEGTLVTVSSASTKGPSVFPLAPSSKSTSGGTAALGCLVKDYFPEPVTVSWNSGALTSGVHTFPAVLQSSGLYSLSSVVTVPSSSLGTQTYICNVNHKPSNTKVDKKVEPKSCDKTHTCPPCPAPDLLGGDSVFLFPPKPKDTLMISRTPEVTCVVVDVSHEDGEVKFNWYVDGVEVHNAKTKPREEQYNSTYRVVSVLTVLHQDWLNGKEYKCKVSNKALPKPIEKTISKAKGQPREPQVYTLPPSRDELTKNQVSLTCLVKGFYPSDIAVEWESNGQPENNYKTTPPVLDSDGSFFLYSKLTVDKSRWQQGNVFSCSVMHEALHNHYTQESLSLSP light: DIQMTQSPSSLSASVGDRVTITCRASQDISSYLNWYQQKPGKAPKLLIYYTSRLHSGVPSRFSGSGSGTDFTFTISSLQPEDIATYYCQQGNTLPYTFGQGTKVEIK |
| 15.8 | 152 | 960 nM | 49000 nM | 61 nM | 9300 nM | 45 nM | 50.7 fold | IL6R-BP186/IL6R-L (antibody, human IgG1, Anti-IL-6R human IgG1 variant; copies: 2 + 2) heavy: QVQLQESGPGLVKPSETLSLTCAVSGHSISHDHAWSWVRQPPGEGLEWIGFISYSGITNYNPSLQGRVTISRDNSKNTLYLQMNSLRAEDTAVYYCARSLARTTAMDYWGEGTLVTVSSASTKGPSVFPLAPSSKSTSGGTAALGCLVKDYFPEPVTVSWNSGALTSGVHTFPAVLQSSGLYSLSSVVTVPSSSLGTQTYICNVNHKPSNTKVDKKVEPKSCDKTHTCPPCPAPDYLGDDSVFLFPPKPKDTLMISRTPEVTCVVVDVSHEDGEVKFNWYVDGVEVHNAKTKPREEQDNSTYRVVSVLTVLHQDWLNGKEYKCKVSNAALPKPIEKTISKAKGQPREPQVYTLPPSRDELTKNQVSLTCLVKGFYPSDIAVEWESNGQPENNYKTTPPVLDSDGSFFLYSKLTVDKSRWQQGNVFSCSVMHEALHNHYTQESLSLSP light: DIQMTQSPSSLSASVGDRVTITCRASQDISSYLNWYQQKPGKAPKLLIYYTSRLHSGVPSRFSGSGSGTDFTFTISSLQPEDIATYYCQQGNTLPYTFGQGTKVEIK |
| 15.8 | 164 | 820 nM | 27000 nM | 52 nM | 8500 nM | 24 nM | 59.4 fold | IL6R-BP194/IL6R-L (antibody, human IgG1, Anti-IL-6R human IgG1 variant; copies: 2 + 2) heavy: QVQLQESGPGLVKPSETLSLTCAVSGHSISHDHAWSWVRQPPGEGLEWIGFISYSGITNYNPSLQGRVTISRDNSKNTLYLQMNSLRAEDTAVYYCARSLARTTAMDYWGEGTLVTVSSASTKGPSVFPLAPSSKSTSGGTAALGCLVKDYFPEPVTVSWNSGALTSGVHTFPAVLQSSGLYSLSSVVTVPSSSLGTQTYICNVNHKPSNTKVDKKVEPKSCDKTHTCPPCPAPDYLGDDSVFLFPPKPKDTLMISRTPEVTCVVVDVSDEDGEVKFNWYVDGVEVHNAKTKPREEQYNSTYRVVSVLTVLHQDWLNGKEYKCKVSNAALPKPIEKTISKAKGQPREPQVYTLPPSRDELTKNQVSLTCLVKGFYPSDIAVEWESNGQPENNYKTTPPVLDSDGSFFLYSKLTVDKSRWQQGNVFSCSVMHEALHNHYTQESLSLSP light: DIQMTQSPSSLSASVGDRVTITCRASQDISSYLNWYQQKPGKAPKLLIYYTSRLHSGVPSRFSGSGSGTDFTFTISSLQPEDIATYYCQQGNTLPYTFGQGTKVEIK |
| 12.3 | 293 | 1100 nM | 45000 nM | 58 nM | 17000 nM | 63 nM | 53.2 fold | IL6R-BP190/IL6R-L (antibody, human IgG1, Anti-IL-6R human IgG1 variant; copies: 2 + 2) heavy: QVQLQESGPGLVKPSETLSLTCAVSGHSISHDHAWSWVRQPPGEGLEWIGFISYSGITNYNPSLQGRVTISRDNSKNTLYLQMNSLRAEDTAVYYCARSLARTTAMDYWGEGTLVTVSSASTKGPSVFPLAPSSKSTSGGTAALGCLVKDYFPEPVTVSWNSGALTSGVHTFPAVLQSSGLYSLSSVVTVPSSSLGTQTYICNVNHKPSNTKVDKKVEPKSCDKTHTCPPCPAPELLGDDSVFLFPPKPKDTLMISRTPEVTCVVVDVSDEDGEVKFNWYVDGVEVHNAKTKPREEQYNSTYRVVSVLTVLHQDWLNGKEYKCKVSNKALPKPIEKTISKAKGQPREPQVYTLPPSRDELTKNQVSLTCLVKGFYPSDIAVEWESNGQPENNYKTTPPVLDSDGSFFLYSKLTVDKSRWQQGNVFSCSVMHEALHNHYTQESLSLSP light: DIQMTQSPSSLSASVGDRVTITCRASQDISSYLNWYQQKPGKAPKLLIYYTSRLHSGVPSRFSGSGSGTDFTFTISSLQPEDIATYYCQQGNTLPYTFGQGTKVEIK |
| 18.5 | 284 | 1400 nM | 49000 nM | 74 nM | 21000 nM | 42 nM | 41.8 fold | IL6R-BP189/IL6R-L (antibody, human IgG1, Anti-IL-6R human IgG1 variant; copies: 2 + 2) heavy: QVQLQESGPGLVKPSETLSLTCAVSGHSISHDHAWSWVRQPPGEGLEWIGFISYSGITNYNPSLQGRVTISRDNSKNTLYLQMNSLRAEDTAVYYCARSLARTTAMDYWGEGTLVTVSSASTKGPSVFPLAPSSKSTSGGTAALGCLVKDYFPEPVTVSWNSGALTSGVHTFPAVLQSSGLYSLSSVVTVPSSSLGTQTYICNVNHKPSNTKVDKKVEPKSCDKTHTCPPCPAPELLGDDSVFLFPPKPKDTLMISRTPEVTCVVVDVSDEDGEVKFNWYVDGVEVHNAKTKPREEQYNSTYRVVSVLTVLHQDWLNGKEYKCKVSNAALPKPIEKTISKAKGQPREPQVYTLPPSRDELTKNQVSLTCLVKGFYPSDIAVEWESNGQPENNYKTTPPVLDSDGSFFLYSKLTVDKSRWQQGNVFSCSVMHEALHNHYTQESLSLSP light: DIQMTQSPSSLSASVGDRVTITCRASQDISSYLNWYQQKPGKAPKLLIYYTSRLHSGVPSRFSGSGSGTDFTFTISSLQPEDIATYYCQQGNTLPYTFGQGTKVEIK |
| 9.7 | 62.3 | 2800 nM | 56000 nM | 290 nM | 18000 nM | 25 nM | 10.7 fold | IL6R-BP187/IL6R-L (antibody, human IgG1, Anti-IL-6R human IgG1 variant; copies: 2 + 2) heavy: QVQLQESGPGLVKPSETLSLTCAVSGHSISHDHAWSWVRQPPGEGLEWIGFISYSGITNYNPSLQGRVTISRDNSKNTLYLQMNSLRAEDTAVYYCARSLARTTAMDYWGEGTLVTVSSASTKGPSVFPLAPSSKSTSGGTAALGCLVKDYFPEPVTVSWNSGALTSGVHTFPAVLQSSGLYSLSSVVTVPSSSLGTQTYICNVNHKPSNTKVDKKVEPKSCDKTHTCPPCPAPEYLGGDSVFLFPPKPKDTLMISRTPEVTCVVVDVSHEDGEVKFNWYVDGVEVHNAKTKPREEQYNSTYRVVSVLTVLHQDWLNGKEYKCKVSNAALPKPIEKTISKAKGQPREPQVYTLPPSRDELTKNQVSLTCLVKGFYPSDIAVEWESNGQPENNYKTTPPVLDSDGSFFLYSKLTVDKSRWQQGNVFSCSVMHEALHNHYTQESLSLSP light: DIQMTQSPSSLSASVGDRVTITCRASQDISSYLNWYQQKPGKAPKLLIYYTSRLHSGVPSRFSGSGSGTDFTFTISSLQPEDIATYYCQQGNTLPYTFGQGTKVEIK |
| 21.9 | 350 | 1000 nM | 58000 nM | 46 nM | 16000 nM | 21 nM | 67.6 fold | IL6R-BP188/IL6R-L (antibody, human IgG1, Anti-IL-6R human IgG1 variant; copies: 2 + 2) heavy: QVQLQESGPGLVKPSETLSLTCAVSGHSISHDHAWSWVRQPPGEGLEWIGFISYSGITNYNPSLQGRVTISRDNSKNTLYLQMNSLRAEDTAVYYCARSLARTTAMDYWGEGTLVTVSSASTKGPSVFPLAPSSKSTSGGTAALGCLVKDYFPEPVTVSWNSGALTSGVHTFPAVLQSSGLYSLSSVVTVPSSSLGTQTYICNVNHKPSNTKVDKKVEPKSCDKTHTCPPCPAPDLLGDDSVFLFPPKPKDTLMISRTPEVTCVVVDVSDEDGEVKFNWYVDGVEVHNAKTKPREEQYNSTYRVVSVLTVLHQDWLNGKEYKCKVSNKALPKPIEKTISKAKGQPREPQVYTLPPSRDELTKNQVSLTCLVKGFYPSDIAVEWESNGQPENNYKTTPPVLDSDGSFFLYSKLTVDKSRWQQGNVFSCSVMHEALHNHYTQESLSLSP light: DIQMTQSPSSLSASVGDRVTITCRASQDISSYLNWYQQKPGKAPKLLIYYTSRLHSGVPSRFSGSGSGTDFTFTISSLQPEDIATYYCQQGNTLPYTFGQGTKVEIK |
